Experiment [1] deals with T1, CD20 (UniProt P11836 1-297, limits assumed).
T1 construct: whole, on cells; Endogenous CD20 on Raji and Wil2-s cell lines; also called CD20 on Raji cells; CD20 on Wil2-s cells
T1 sequence (looked up): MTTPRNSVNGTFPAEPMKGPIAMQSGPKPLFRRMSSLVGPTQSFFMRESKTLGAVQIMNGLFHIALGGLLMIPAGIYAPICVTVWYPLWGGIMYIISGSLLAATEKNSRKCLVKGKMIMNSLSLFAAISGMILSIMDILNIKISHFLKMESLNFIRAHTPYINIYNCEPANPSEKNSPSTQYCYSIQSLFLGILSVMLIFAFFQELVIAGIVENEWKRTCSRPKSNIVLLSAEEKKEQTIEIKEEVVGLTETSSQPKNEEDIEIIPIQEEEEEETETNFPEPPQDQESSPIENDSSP
The experiment is described as follows: flow cytometry, antibody titrated on Wil2-s cells, FITC anti-human IgG1 Fab secondary.

Experiment [2] addresses T1, CD20. Put plainly: flow cytometry on Wil2-s cells; Kd=[Ab]*{Fmax/(F-Fback)-1}.
Experiment [3] deals with T1, CD20. The experiment is described as follows: flow cytometry; Mean Kd over Raji and Wil2-s cells.
The target of experiment [4] is T1, CD20. The experiment is described as follows: flow cytometry on Raji cells; Kd=[Ab]*{Fmax/(F-Fback)-1}.
Experiment [5] has as its target T1, CD20. Put plainly: flow cytometry, antibody titrated on Raji cells, FITC anti-human IgG1 Fab secondary.
The target in experiment [6] is T2, FcγRIIIa 158V (UniProt P08637 17-208, biotin-labeled (site not stated)).
T2 construct: also called biotin-labeled FcγRIIIa 158V
Put plainly: biosensor with SA sensor, biotin-FcγRIIIa 158V loaded, antibody in solution (7 concentrations, 2x gradient from 500 nM). Here is the method:
The sensor was pre-wetted in PBS for 10 min. […] AB solution, […], regeneration buffer, drug diluent and neutralization buffer were sequentially added to the corresponding columns of a 96-well plate. The SA sensor operates as follows: Baseline: detected the baseline in AB, 150 s; Association: combined in the gradient concentration of drug diluent sample and blank (AB) for 90 s; Dissociation: dissociated in AB for 120 s; Regeneration: regenerated in NaOH (pH 10.5) for 5 s; Neutralization: neutralized in AB for 5 s. The regeneration and neutralization cycles were carried out for 3 times. The collected data were analyzed by the instrument data analysis software Acquisition 8.2. Taking Baseline acquisition signal as a baseline and subtracting the reference signal (double deduction of sample blank and sensor blank), the data were subject to group analysis and fitted.

T2 sequence (P08637 17-208 F176V): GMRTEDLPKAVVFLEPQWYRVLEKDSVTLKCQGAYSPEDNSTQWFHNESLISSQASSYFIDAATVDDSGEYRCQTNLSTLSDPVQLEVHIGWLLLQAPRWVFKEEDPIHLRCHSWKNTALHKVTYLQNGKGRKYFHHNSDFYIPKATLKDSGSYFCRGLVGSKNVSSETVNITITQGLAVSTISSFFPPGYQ

B1: Rituximab (antibody, V domains shown)
VH: QVQLQQPGAELVKPGASVKMSCKASGYTFTSYNMHWVKQTPGRGLEWIGAIYPGNGDTSYNQKFKGKATLTADKSSSTAYMQLSSLTSEDSAVYYCARSTYYGGDWYFNVWGAGTTVTVSA
VL: QIVLSQSPAILSASPGEKVTMTCRASSSVSYIHWFQQKPGSSPKPWIYATSNLASGVPVRFSGSGSGTSYSLTISRVEAEDAATYYCQQWTSNPPTFGGGTKLEIK
With B1, the results for the IC50 in experiment [1] and in experiment [5] were 16.8 nM and 13.3 nM, respectively. The values for the Kd in experiment [2], in experiment [3] and in experiment [4] were 16 nM, 14.3 nM and 12.7 nM, respectively.

B2: BAT4306F (antibody, human IgG1)
light: DIVMTQTPLSLPVTPGEPASISCRSSKSLLHSNGITYLYWYLQKPGQSPQLLIYQMSNLVSGVPDRFSGSGSGTDFTLKISRVEAEDVGVYYCAQNLELPYTFGGGTKVEIKR
heavy: not shown
modifications: N-linked oligosaccharide without fucose (produced in FUT8 knockout CHO-2G8 / CHO-BAT-KF cells)
notes: Humanized anti-CD20 IgG with B-HH6 heavy and B-KV1 light variable regions from B-Ly1 (WO2005044859); Non-fucosylated glycoform; also called carbohydrate chain modified BAT4306F
Turning to B2, the dissociation constant (Kd) in experiment [6] was 25.7 nM.
